Results reported in patent publication CN114685670A (SHANGHAI LYOFIE MEDICAL SCIENCE AND TECH LIMITED COMPANY, dated 2022).
Values belong to the binder of their own block, whether it stands above or below them.

How the values were obtained:
[1] = target: T1, human CLDN18.2 (human, UniProt P56856-2 1-261); test: flow cytometry on 18.2-K562 cells, 8-point antibody dilution, Anti-Human IgG FITC detection
T1 construct: whole, on cells; also called hCLDN18.2; Claudin 18.2
T1 sequence (looked up): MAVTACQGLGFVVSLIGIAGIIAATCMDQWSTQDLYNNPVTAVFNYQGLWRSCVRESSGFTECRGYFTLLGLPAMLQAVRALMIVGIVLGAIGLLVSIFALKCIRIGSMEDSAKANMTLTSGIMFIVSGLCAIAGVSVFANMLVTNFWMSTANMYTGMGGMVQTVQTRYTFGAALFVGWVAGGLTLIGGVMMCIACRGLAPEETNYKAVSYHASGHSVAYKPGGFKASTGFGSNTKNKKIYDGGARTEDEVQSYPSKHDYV

[2] = target: T1, human CLDN18.2; test: flow cytometry, hybridoma supernatant on CHO stable cells

抗体亲和力 (affinity from FACS titration, EC50-like) [1]: 0.675 µg/mL
B1: A8抗体 (as tested in Example 6) (antibody, V domains shown)
VH: QVQLQQPGAELVKPGASVKLSCKASGYTFTSYWMHWVRQRPGQGLEWIGMIHPNSGSTNYNGKFKSKATLTVDKSSSTAYMQLSSLTSEDSAVYFCARGGYYGNSLDFWGQGTSLTVSS
VL: DIVMTQSPSSLTVTAREKVTMSCKSSQSLLNSGNQKNYLTWYQQKPGQPPKLLIYWASTRESGVPDRFTGSGSGTDFTLTISSVQAEDLAVYYCQNAYSYPFTFGSGTKLEIK

binding result [2]: binds
B2: C18-16-1H1-1A8 (antibody, V domains shown)
VH: B1 VH
VL: DIVMTQSPSSLTVTAREKVTMSCKSSQSLLNSGNQKNYLTWYQQKPGQPPKLLIYWASTRESGVPDRFTGSGSGTDFTLTISSVQAEDLAVYYCQNAYSYPFTFGSGTKLEIKR
notes: also called A8抗体; C18-16-1H1-1A8重组抗体
